Experimental data reported in US20260176306A1.

B1: H7.HK1 (antibody, V domains shown)
VH: QVQLQESGPGLVKPSETLSLTCSVSGGSINSYYWTWIRQPPGKGLEWVGYIYHSGSTSYNPSLKSRITISVAPSKNHFSLELTSMTAADTAVYYCARLGGHGDYGSDYWGQGTLVTVSS
VL: DIVMTQSPVSLPVTPGEPASISCNSSQSLLHSNGYAHLDWYLQKPGQSPKLMIYLGLNRAFGVPDRFSGSGSGTDFTLKISRVEAEDVGVYYCMQALQTPFTFGPGTRVDIK
B2: H7.HK2 (antibody, V domains shown)
VH: QVQLQGSGPGLLRPSETLSLTCSVSGVSINSYYWSWVRQPPGKALEWIGYIYYSGNTNYNPSLESRVTISVDRSKNQFSLKMTSVTAADTARYFCARQGIFGDYGSDYWGPGTLVTVSS
VL: DIVMTQSPLSLPVTPGEPASISCRSNQSLQHSNGYVHLDWYRQKPGQSPHLLIYLGFNRASGVPDRFSGGGSGTDFTLKISRVEAEDVGVYYCMQGLQTPFTFGPGTTVDLK
B3: H7.HK4 (antibody, V domains shown)
VH: QVQLQESGPGLVKPSETLSLTCTVSGGSVRSASYAWSWIRQPPGKGLEWIGDIYYSGTTNYNPSLKSRVTLSVDTAKNRFSLRLRSVTAADTAVYHCARERYYYGSSGDFDYWGQGTLVTVSS
VL: DIQMTQSPSSLSASVGDRVTITCRASQGIRNYLAWFQQKPGQAPKSLIFAASSLHTGVPSRFSGSGSGTDFTLTISSLQPEDFATYYCQHYNSYPPTFGQGTKLEIK

How the values were obtained:
[1] = biological target: H7 hemagglutinin of A/Hong Kong/125/2017 H7N9 on pseudo virus (Influenza A virus A/Hong Kong/125/2017 H7N9); assay: cell-based or functional assay
[2] = biological target: H7 hemagglutinin of A/Shanghai/4664T/2013 H7N9 on pseudo virus (Influenza A virus A/Shanghai/4664T/2013 H7N9); assay: cell-based or functional assay

| Binder | neutralization IC50, H7N9 2017 pseudo virus, MDCK cells, luciferase [1] [µg/mL] | neutralization, H7N9 2013 pseudo virus, MDCK cells, luciferase [2] [µg/mL] |
| --- | --- | --- |
| B1 | 0.03 |  |
| B2 | 0.03 |  |
| B3 |  | > 10 |
